Biological target: T1, nSR100 (Mus musculus, UniProt Q8BKA3)
T1 construct: host or cells: mouse N2A cells
T1 sequence (Q8BKA3 1-608): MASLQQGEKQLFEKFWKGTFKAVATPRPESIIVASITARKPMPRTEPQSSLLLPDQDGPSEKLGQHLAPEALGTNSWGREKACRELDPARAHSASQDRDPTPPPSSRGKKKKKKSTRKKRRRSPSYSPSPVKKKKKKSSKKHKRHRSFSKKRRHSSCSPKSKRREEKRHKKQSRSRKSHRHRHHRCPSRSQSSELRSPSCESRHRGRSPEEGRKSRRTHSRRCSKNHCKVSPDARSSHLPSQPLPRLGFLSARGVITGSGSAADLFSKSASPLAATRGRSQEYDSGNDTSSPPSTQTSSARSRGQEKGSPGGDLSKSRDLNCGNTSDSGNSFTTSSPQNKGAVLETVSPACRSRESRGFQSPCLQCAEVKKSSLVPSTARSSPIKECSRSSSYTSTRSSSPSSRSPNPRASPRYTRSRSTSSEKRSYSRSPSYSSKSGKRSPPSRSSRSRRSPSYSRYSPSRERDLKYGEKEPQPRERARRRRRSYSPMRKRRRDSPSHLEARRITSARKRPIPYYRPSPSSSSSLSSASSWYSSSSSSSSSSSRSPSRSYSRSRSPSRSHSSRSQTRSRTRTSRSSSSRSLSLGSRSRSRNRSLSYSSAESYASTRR
Experiment: AP-MS nSR100 interaction partners from mouse N2A cells (Table 5)
Assay type: binding
Details: for AvgP (average of the SAINT scores) / MaxP (maximal SAINT score): bait Srrm4; for FoldChange between the prey Avg spectra of the bait and control purifications: bait Srrm4, 0.1 added to prevent division by 0; for AvgSpec (average number of spectra per replicate): bait Srrm4, 2 replicates; for Spectra (number of spectra for the prey in the purification of the bait): AP-MS; for SpecSum: bait Srrm4, sum of spectra over 2 replicates

[1] = bait Srrm4, biological replicate 1 (first number of the cell)
[2] = bait Srrm4, biological replicate 2 (second number of the cell)

Source text: By applying affinity purification coupled to mass-spectrometry (AP-MS), several interaction nSR100 partner proteins were detected that provide insight into mechanisms of post-translational regulation of nSR100 levels.

Substance	AvgP (average of the SAINT scores)	MaxP (maximal SAINT score)	FoldChange between the prey Avg spectra of the bait and control purifications	AvgSpec (average number of spectra per replicate)	Spectra (number of spectra for the prey in the purification of the bait) [1]	Spectra (number of spectra for the prey in the purification of the bait) [2]	SpecSum
Ap2m1	1	1	9.12	36.5	31	42	73
Cdc42bpb	1	1	90	9	6	12	18
Cdk1	1	1	14.25	57	47	67	114
Csnk2b	0.99	1	8.5	8.5	10	7	17
Ddx39b	1	1	150	15	15|15	15|15	30
Gpatch8	0.95	0.95	20	2	2|2	2|2	4
Idh2	1	1	6.6	16.5	17	16	33
Nudt21	0.97	1	4	14	16	12	28
Pnn	1	1	25.33	38	33	43	76
Prrc2a	0.95	0.95	20	2	2|2	2|2	4
Snrpc	0.99	1	11	5.5	5	6	11
Son	0.98	1	45	4.5	2	7	9
Srrm2	1	1	5.37	51	47	55	102
Wdr48	1	1	45	4.5	3	6	9

Second part, the substance after the results:

AvgP (average of the SAINT scores)	MaxP (maximal SAINT score)	FoldChange between the prey Avg spectra of the bait and control purifications	AvgSpec (average number of spectra per replicate)	Spectra (number of spectra for the prey in the purification of the bait) [1]	Spectra (number of spectra for the prey in the purification of the bait) [2]	SpecSum	Substance
1	1	6.16	117	97	137	234	Ap2a2
1	1	9.5	19	17	21	38	Bub3
0.97	0.99	25	2.5	2	3	5	Clk3
1	1	390	39	41	37	78	Hspa2
1	1	21	10.5	10	11	21	Magohb
0.99	1	11.33	17	16	18	34	Pcbp1
1	1	3.36	60.5	63	58	121	Prpf8
0.95	0.95	20	2	2|2	2|2	4	Rfc2
1	1	5.1	51	48	54	102	Snrnp70
1	1	3.57	25	24	26	50	Ywhae

Reference: patent publication US10772928B2, “Modulation and detection of a neuronal alternative splicing regulatory network for treatment and diagnosis of neurological disorders” (The Governing Council of the University of Toronto, priority 2014, dated 2020)
